We go through 4 proteins from US5795761A, “Mutants of 2,5-diketo-D-gluconic acid (2,5-DKG) reductase A” (Rutgers, The State University of New Jersey, priority 1996, dated 1998).

Assay type in all cases: biochemical, Corynebacterium sp. (ATCC 31090)
Substrate in data set [1]: O=C(O)C(=O)[C@@H](O)[C@H](O)C(=O)CO
As to the kind of experiment: Substrate kinetics of 2,5-DKG reduction (NADPH oxidation followed at 340 nm). The note with it: other: 50 mM tris pH 7.0, 0.2 mM NADPH, 2 to 14 mM substrate, 25° C. The procedure: (§1) The preparations of wild-type and mutant Q192R 2,5-DKG reductase A enzymes were characterized kinetically as to their ability to reduce the substrate 2,5-DKG to 2-KLG. Assays were done in 1 ml total volume of 50 mM tris, pH 7.0, containing 0.2 mM NADPH, a constant amount of enzyme (15-20 μg) and amounts of substrate varying from 2 to 14 mM. The assays were done at 25° C., and the rate of substrate reduction was measured spectrophotometrically by measuring the loss of absorbance at 340 nm wavelength (which is indicative of the oxidation of the cofactor NADPH to NADP+).
The data were analyzed according to the well-known Michaelis equation to determine the kinetic parameters Vmax and Km using the Enzfit software package (Biosoft, Cambridge, UK) on a Epson desktop computer.

Substrate in data set [2]: NC(=O)C1=CN([C@@H]2O[C@H](COP(=O)(O)OP(=O)(O)OC[C@H]3O[C@@H](n4cnc5c(N)ncnc54)[C@H](OP(=O)(O)O)[C@@H]3O)[C@@H](O)[C@H]2O)C=CC1
Nature of the data set: Cofactor kinetics, constant 2,5-DKG and varying NADPH. The note with it: other: 50 mM bis-Tris pH 6.8, 10 mM 2,5-DKG, 2.5 to 200 μM NADPH. The protocol: The cofactor affinity of DKG reductase A F22Y, Q192R, A272G, and F22Y/A272G was determined by analysis of a series of reactions with constant substrate concentration and varying concentrations of NADPH.
Each series of reactions consisted of 50 mM bis-Tris pH 6.8, 10 mM 2,5-DKG, from 2.5 to 200 μM NADPH, and enzyme in a total volume of 1.0 ml.
Initial rate data for the reactions were fitted to the Michaelis-Menten equation by non-linear regression analysis as previously described to determine KM,NADPH.

Substrate in data set [3]: O=C(O)C(=O)[C@@H](O)[C@H](O)C(=O)CO
Nature of the data set: Substrate kinetics of 2,5-DKG reduction, 200 μM NADPH, substrate 0 to 30 mM. Conditions: other: 200 μM NADPH, 0 to 30 mM 2,5-DKG; pH 7.0; 25.0 °C. The procedure: as §1
A crude kinetic characterization of 2,5-DKG Reductase A mutants D278A, V277A, E276A, D275A, P274A, H273A, A272G, S271A, V270A, R269A, S267A, and D265A was carried out. […] 2-5-DKG Reductase A mutant A272G was characterized in essentially the same manner as in Example 5 except that in order to determine kinetic parameters for the NADPH-dependent reduction of 2,5-DKG by 2,5-DKG reductases, a series of reactions were done with constant saturating concentration of NADPH (200 μM) and varying concentrations of substrate from 0 to 30 mM.

B1: Corynebacterium sp. 2,5-DKG reductase A, wild type (Corynebacterium sp. ATCC 31090) (protein)
chain: MTVPSIVLNDGNSIPQLGYGVFKVPPADTQRAVEEALEVGYRHIDTAAIYGNEEGVGAAIAASGIARDDLFITTKLWNDRHDGDEPAAAIAESLAKLALDQVDLYLVHWPTPAADNYVHAWEKMIELRAAGLTRSIGVSNHLVPHLERIVAATGVVPAVNQIELHPAYQQREITDWAAAHDVKIESWGPLGQGKYDLFGAEPVTAAAAAHGKTPAQAVLRWHLQKGFVVFPKSVRRERLEENLDVFDFDLTDTEIAAIDAMDPGDGSGRVSAHPDEVD
notes: made in house; host or cells: Acetobacter cerinus (ATCC No. 39140)
As for B1, in data set [1], the Km (in general, the substrate concentration at which the rate is half of its maximum) came to 28 mM; the Vmax is given as 7.8 μmoles per minute per milligram of protein; the kcat/Km (commonly the second-order rate constant that governs catalysis at low substrate concentration) came out at 140 M⁻¹ s⁻¹.

B2: Corynebacterium sp. 2,5-DKG reductase A mutant F22Y/A272G (Corynebacterium sp. ATCC 31090; A272G/F22Y) (protein)
chain: MTVPSIVLNDGNSIPQLGYGVYKVPPADTQRAVEEALEVGYRHIDTAAIYGNEEGVGAAIAASGIARDDLFITTKLWNDRHDGDEPAAAIAESLAKLALDQVDLYLVHWPTPAADNYVHAWEKMIELRAAGLTRSIGVSNHLVPHLERIVAATGVVPAVNQIELHPAYQQREITDWAAAHDVKIESWGPLGQGKYDLFGAEPVTAAAAAHGKTPAQAVLRWHLQKGFVVFPKSVRRERLEENLDVFDFDLTDTEIAAIDAMDPGDGSGRVSGHPDEVD
notes: made in house
B2: the Michaelis constant (Km) in data set [2] was 0.00819 mM.

B3: Corynebacterium sp. 2,5-DKG reductase A mutant A272G (Corynebacterium sp. ATCC 31090; A272G) (protein)
chain: MTVPSIVLNDGNSIPQLGYGVFKVPPADTQRAVEEALEVGYRHIDTAAIYGNEEGVGAAIAASGIARDDLFITTKLWNDRHDGDEPAAAIAESLAKLALDQVDLYLVHWPTPAADNYVHAWEKMIELRAAGLTRSIGVSNHLVPHLERIVAATGVVPAVNQIELHPAYQQREITDWAAAHDVKIESWGPLGQGKYDLFGAEPVTAAAAAHGKTPAQAVLRWHLQKGFVVFPKSVRRERLEENLDVFDFDLTDTEIAAIDAMDPGDGSGRVSGHPDEVD
notes: made in house
In the case of B3, the Km in data set [3] stood at 42.61 ± 12.13 mM; in data set [2] it was 0.00492 mM. Moreover, in data set [3], the catalytic constant (kcat) (as a rule, the number of substrate molecules converted per active site and unit of time at saturation) came to 21.44 ± 4.10 s⁻¹.

B4: Corynebacterium sp. 2,5-DKG reductase A mutant Q192R (Corynebacterium sp. ATCC 31090; Q192R) (protein)
chain: MTVPSIVLNDGNSIPQLGYGVFKVPPADTQRAVEEALEVGYRHIDTAAIYGNEEGVGAAIAASGIARDDLFITTKLWNDRHDGDEPAAAIAESLAKLALDQVDLYLVHWPTPAADNYVHAWEKMIELRAAGLTRSIGVSNHLVPHLERIVAATGVVPAVNQIELHPAYQQREITDWAAAHDVKIESWGPLGRGKYDLFGAEPVTAAAAAHGKTPAQAVLRWHLQKGFVVFPKSVRRERLEENLDVFDFDLTDTEIAAIDAMDPGDGSGRVSAHPDEVD
notes: made in house; host or cells: Acetobacter cerinus
As for B4, in data set [1], the Km was 21 mM, the Vmax is 14.0 μmoles per minute per milligram of protein and the kcat/Km came to 335 M⁻¹ s⁻¹.
